Laboratory results as given in patent US20240310383A1, “Proteomic Risk Score For Osteoarthritis (OA)” (Regeneron Pharmaceuticals, Inc., priority 2023, published 2024).

System: patients with pain due to osteoarthritis of the knee or hip
Test: WOMAC pain and functional score improvement in R475-OA-1688 clinical trial, stratified by OA proteomic risk score groups
Format: in vivo, human

B1: fasinumab (antibody, chains of the INN, looked up, V domains shown)
VH: QVQLVQSGAEVKKPGASVKVSCKVSGFTLTELSIHWVRQAPGKGLEWMGGFDPEDGETIYAQKFQGRVTMTEDTSTDTAYMELTSLRSEDTAVYYCSTIFGVVTNFDNWGQGTLVTVSS
VL: DIQMTQSPSSLSASAGDRVTITCRASQAIRNDLGWYQQKPGKAPKRLIYAAFNLQSGVPSRFSGSGSGTEFTLTISSLQPEDLASYYCQQYNRYPWTFGQGTKVEIK
notes: anti-NGF antibody (NGF antagonist) tested in phase 3 study R475-OA-1688
efficacy compared with both NSAIDs or placebo treated patients (Fasinumab 1q4w, OA proteomic score high risk group): has efficacy benefits
efficacy compared with either NSAIDs or placebo (fasinumab 1q4w, patients in 1st to 3rd OA proteomic score quartiles): maintains efficacy superiority
efficacy profile (both WOMAC pain and WOMAC functional scores) (patients in 1st to 3rd OA proteomic score quartiles, fasinumab 1q4w, FIG. 9 and FIG. 10): better efficacy profile
